Reference: patent publication US20180162928A1 (Janssen / Centocor, published 2018)

How the values were obtained:
Test in all cases: ELISA, lysate on plate-bound antigen
[1] = biological target: unrelated Fc-fused recombinant protein
[2] = biological target: human serum albumin (human) (UniProt P02768)
[3] = biological target: T1, recombinant biotinylated PD-L1 (rhPD-L1/Fc Chimera, R&D Systems 156-B7) (human, UniProt Q9NZQ7 19-238, biotinylated (sites not given))
T1 construct: Bought Fc chimera; also called human PD-L1
Experimental: Streptavidin-coated Maxisorp plates (Nunc catalog 436110) were blocked for 1 h in Starting Block T20 (Pierce) and then coated with biotinylated PD-L1 (using same antigen as in panning) or negative controls (an unrelated Fc-fused recombinant protein and human serum albumin) for 1 h. Plates were rinsed with TBST and diluted lysate was applied to plates for 1 h. Following additional rinses, wells were treated with HRP-conjugated anti-FN3 domain antibody (PAB25) for 1 h and then assayed with POD (Roche catalog 11582950001).

Chain of human serum albumin (human) (P02768 25-609 limits assumed): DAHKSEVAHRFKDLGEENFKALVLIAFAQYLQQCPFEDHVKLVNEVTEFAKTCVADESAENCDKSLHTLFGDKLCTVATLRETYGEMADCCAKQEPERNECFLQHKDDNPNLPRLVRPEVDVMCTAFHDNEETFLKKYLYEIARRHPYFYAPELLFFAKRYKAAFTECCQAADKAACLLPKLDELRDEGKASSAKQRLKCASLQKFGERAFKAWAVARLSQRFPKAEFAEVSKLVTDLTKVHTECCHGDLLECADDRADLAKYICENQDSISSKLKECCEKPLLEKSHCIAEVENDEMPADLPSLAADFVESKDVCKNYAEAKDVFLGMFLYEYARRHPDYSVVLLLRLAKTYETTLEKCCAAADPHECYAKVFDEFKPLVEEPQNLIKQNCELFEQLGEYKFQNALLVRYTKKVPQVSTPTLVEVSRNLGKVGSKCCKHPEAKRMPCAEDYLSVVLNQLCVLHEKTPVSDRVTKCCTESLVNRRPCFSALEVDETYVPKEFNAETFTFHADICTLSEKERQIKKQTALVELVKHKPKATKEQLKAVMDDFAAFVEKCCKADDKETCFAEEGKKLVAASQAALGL
T1 sequence (Q9NZQ7 19-238, change not shown): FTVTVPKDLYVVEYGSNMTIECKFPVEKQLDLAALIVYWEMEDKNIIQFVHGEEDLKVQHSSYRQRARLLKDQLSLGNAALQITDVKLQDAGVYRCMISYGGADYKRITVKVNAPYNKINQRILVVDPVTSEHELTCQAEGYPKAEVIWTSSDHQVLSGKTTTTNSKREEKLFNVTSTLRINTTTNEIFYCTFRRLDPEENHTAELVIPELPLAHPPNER

Binder	ELISA Fc Control (RSU) [1]	ELISA HSA (RSU) [2]	ELISA PD-L1 Fc (RSU) [3]
ISOP121BR5P1D6 (designed binder, not shown: small tags and cut ends, FN3 domain; E. coli lysate in the ELISA) LPAPKNLVVSRVTEDSARLSWKQGTSFHFDSFLIQYQESEKVGEAIVLTVPGSERSYDLTGLKPGTEYTVSIYGVQLLANDIISSNPLSAIFTT	560 RSU	880 RSU	2.44e+06 RSU
ISOP194BR9P1A5 (designed binder, not shown: small tags and cut ends, FN3 domain; E. coli lysate in the ELISA) LPAPKNLVVSRVTEDSARLSWFNADEEYFDSFLIQYQESEKVGEAIVLTVPGSERSYDLTGLKPGTEYTVSIYGVYQRGYHNWFSNPLSAIFTT	800 RSU	1280 RSU	3.18e+06 RSU
ISOP121BR5P1D11 (designed binder, not shown: small tags and cut ends, FN3 domain; E. coli lysate in the ELISA) LPAPKNLVVSRVTEDSARLSWFNADEEYFDSFLIQYQESEKVGEAIVLTVPGSERSYDLTGLKPGTEYTVSIYGVYVRAVRFVSSNPLSAIFTT	800 RSU	1120 RSU	2.44e+06 RSU
ISOP121AR5P1G6 (designed binder, not shown: small tags and cut ends, FN3 domain; E. coli lysate in the ELISA) LPAPKNLVVSRVTEDSARLSWHATFGDPFDSFLIQYQESEKVGEAIVLTVPGSERSYDLTGLKPGTEYTVSIYGVGRHYTVYDSNPLSAIFTT	1200 RSU	880 RSU	17000 RSU
ISOP194AR9P1C5 (designed binder, not shown: small tags and cut ends, FN3 domain; E. coli lysate in the ELISA) LPAPKNLVVSRVTEDSARLSWLRDFNGRAFFDSFLIQYQESEKVGEAIVLTVPGSERSYDPTGLKPGTEYTVSIYGVFITWIHVRSNPLSAIFTT	3440 RSU	1040 RSU	4.37e+06 RSU
ISOP121HR5P1G9 (designed binder, not shown: small tags and cut ends, FN3 domain; E. coli lysate in the ELISA) LPAPKNLVVSRVTEDSARLSWTAPDAAFDSFPINYGERATKGEAINLYVPGSERSYDLTGLKPGTEYWVLIGGVKGGLKSSPLWAWFTT	880 RSU	1760 RSU	17800 RSU
ISOP121GR5P1B4 (designed binder, not shown: small tags and cut ends, FN3 domain; E. coli lysate in the ELISA) LPAPKNLIVSRVTEDSARLSWTAPDAAFDSFPINYGERATKGEAINLYVPGSERSYDLTGLKPGTEYWVLIGGVKGGLKSSPLWAWFTT	800 RSU	560 RSU	16200 RSU
ISOP121BR5P1F10 (designed binder, not shown: small tags and cut ends, FN3 domain; E. coli lysate in the ELISA) LPAPKNLVVSRVTEDSARLSWPLNLEYFDSFLIQYQESEKVGEAIVLTVPGSERSYDLTGLKPGTEYTVSIYGVYGRYGGPFVSNPLSAIFTT	560 RSU	720 RSU	1.42e+06 RSU
ISOP194AR9P1D8 (designed binder, not shown: small tags and cut ends, FN3 domain; E. coli lysate in the ELISA) LPAPKNLVVSRVTEDSARLSWDTWNDFFDSFLIQYQESEKVGEAIVLTVPGSERSYDLTGLKPGTEYTVSIYGVYQRKVIWLSNPLSAIFTT	12000 RSU	6560 RSU	923000 RSU
ISOP121AR5P1D11 (designed binder, not shown: small tags and cut ends, FN3 domain; E. coli lysate in the ELISA) LPAPKNLVVSRVTEDSARLSWEWLEHFDSFLIQYQESEKVGEAIVLTVPGSERSYDLTGLKPGTEYTVSIYGVYQRKVEFHSNPLSAIFTT	640 RSU	1040 RSU	393000 RSU
ISOP194AR9P1E8 (designed binder, not shown: small tags and cut ends, FN3 domain; E. coli lysate in the ELISA) LPAPKNLVVSRVTEDSARLSWEWLEHFDSFLIQYQESEKVGEAIVLTIPGSERSYDLTGLKPGTEYTVSIYGVYQRKVEFHSNPLSAIFTT	6960 RSU	67700 RSU	3.4e+06 RSU
ISOP194AR9P1C10 (designed binder, not shown: small tags and cut ends, FN3 domain; E. coli lysate in the ELISA) LPAPKNLVVSRVTEDSARPSWEWLEHFDSFLIQYQESEKVGEAIVLTVPGSERSYDLTGLKPGTEYTVSIYGVYNRKVNFYSNPLSAIFTT	38200 RSU	15000 RSU	1.39e+07 RSU
ISOP194AR9P1C3 (designed binder, not shown: small tags and cut ends, FN3 domain; E. coli lysate in the ELISA) LPAPKNLVVSRVTQNSARLSWEWLEHFDSFLIHYQESEKVGEAIVLTVPGSERSYDLTGLKPGTEYTVSIYGVYQRKVEFHSNPLSAIFTT	56400 RSU	5920 RSU	3.55e+06 RSU
ISOP194ER9P1A11 (designed binder, not shown: small tags and cut ends, FN3 domain; E. coli lysate in the ELISA) LPAPKNLVVSRVTEDSARLSWTAPDAAFDSFRIAYYETMVSGEAIVLTVPGSERSYDLTGLKPGTEYAVIIKGVKGGKPSWPLSAIFTT	800 RSU	880 RSU	4.35e+06 RSU
ISOP121BR5P1D10 (designed binder, not shown: small tags and cut ends, FN3 domain; E. coli lysate in the ELISA) LPAPKNLVVSRVTEDSARLSWGKKSHFFDSFLIQYQESEKVGEAIVLTVPGSERSYDLTGLKPGTEYTVSIYGVYTRGQCEWESNQLSAIFFTT	480 RSU	880 RSU	1.54e+06 RSU
ISOP121BR5P1A7 (designed binder, not shown: small tags and cut ends, FN3 domain; E. coli lysate in the ELISA) LPAPKNLVVSRVTEDSARLSWTTAFHNEYFDSFLIQYQESEKVGEAIVLTVPGSERSYDLTGLKPGTEYTVSIYGVYSRPKAEFTSNPLSAIFTT	800 RSU	1120 RSU	389000 RSU

The remaining lines, values ahead:

ELISA Fc Control (RSU) [1]	ELISA HSA (RSU) [2]	ELISA PD-L1 Fc (RSU) [3]	Binder
1360 RSU	1280 RSU	2.15e+06 RSU	ISOP194BR9P1D1 (designed binder, not shown: small tags and cut ends, FN3 domain; E. coli lysate in the ELISA) LPAPKNLVVSRVTEDSARLSWEHSLLNDQWFDSFLIQYQESEKVGEAIVLTVPGSERSYDLTGLKPGTEYTVSIYGVYQRGRALWYSNPLSAIFTT
640 RSU	1280 RSU	6.11e+06 RSU	ISOP194BR9P1C8 (designed binder, not shown: small tags and cut ends, FN3 domain; E. coli lysate in the ELISA) LPAPKNLVVSRVTEDSARLSWYFAGELWFDSFLIQYQESEKVGEAIVLTVPGSERSYDLTGLKPGTEYTVSIYGVYQRGYHNWFSNPLSAIFTT
1040 RSU	1440 RSU	164000 RSU	ISOP194GR9P1C11 (designed binder, not shown: small tags and cut ends, FN3 domain; E. coli lysate in the ELISA) LPAPKNLVVSRVTEDSARLSWTAPDAAFDSFWIFYNERWQNGEAIRLTVPGSERSYDLTGLKPGTEYWVLIGGVKGGLKSSPLWAWFTT
9200 RSU	4880 RSU	1.77e+07 RSU	ISOP194AR9P1H3 (designed binder, not shown: small tags and cut ends, FN3 domain; E. coli lysate in the ELISA) LPAPKNLVVSRVTEDSARLSWNASWISHNFFDSFLIQYQESEKVGEAIVLTVPGSERSYDLTGLKPGTEYTVSIYGVYERKTAFYSNPLSAIFTT
1920 RSU	1760 RSU	1.52e+07 RSU	ISOP194BR9P1F7 (designed binder, not shown: small tags and cut ends, FN3 domain; E. coli lysate in the ELISA) LPAPKNLVVSRVTEDSARLSWFNADEEYFDSFLIQYQESEKVGEAIVLTVPGSERSYDLTGLKPGTEYTVSIYGVYTRGRYEWRESNPLSAIFTT
5520 RSU	1600 RSU	1.97e+07 RSU	ISOP194AR9P1E9 (designed binder, not shown: small tags and cut ends, FN3 domain; E. coli lysate in the ELISA) LPAPKNLVVSRVTEDSARLSWEWLEHFDSFLIQYQESEKVGEAIVLTVPGSERSYDLTGLKPGTEYTVSIYGVYQRKVNFYSNPLSAIFTT
21300 RSU	11400 RSU	2.59e+06 RSU	ISOP194AR9P1H9 (designed binder, not shown: small tags and cut ends, FN3 domain; E. coli lysate in the ELISA) LPAPKNLVVSRVTEDSARLSWEWLEHFDSFQIQYQESEKVGEAIVLTVPGSERSYDLTGLKPGTEYTVSIYGVYQRKVEFHSNPLSAIFTT
1920 RSU	7520 RSU	1.63e+07 RSU	ISOP194AR9P1F2 (designed binder, not shown: small tags and cut ends, FN3 domain; E. coli lysate in the ELISA) LPAPKNLVISRVTEDSARLSWEWLEHFDSFLIQYQESEKVGEAIVLTVPGSERSYDLTGLKPGTEYTVSIYGVYNRKVNFYSNPLSAIFTT
720 RSU	880 RSU	3.04e+06 RSU	ISOP194ER9P1H9 (designed binder, not shown: small tags and cut ends, FN3 domain; E. coli lysate in the ELISA) LPAPKNLVVSRVTEDSARLSWTAPDAAFDSFRIAYYETMVSGEAIVLTVPGSERSYDLTGPKPGTEYAVIIKGVKGGKPSWPLSAIFTT
560 RSU	720 RSU	4.29e+06 RSU	ISOP194ER9P1G3 (designed binder, not shown: small tags and cut ends, FN3 domain; E. coli lysate in the ELISA) LPAPKNLIVSRVTEDSARLSWTAPDAAFDSFRIAYYETMVSGEAIVLTVPGSERSYDLTGLKPGTEYAVIIKGVKGGKPSWPLSAIFTT
560 RSU	800 RSU	2.36e+06 RSU	ISOP194ER9P1A3 (designed binder, not shown: small tags and cut ends, FN3 domain; E. coli lysate in the ELISA) LPAPKNLVVSRVTEDSARLSWTAPDAAFDSFRIAYYETMVSGEAIVLTVPGSERSYDLTGLKPGTEYAVIIKGVKGGMVSWPLSAIFTT
3040 RSU	3840 RSU	4.06e+06 RSU	ISOP194BR9P1H4 (designed binder, not shown: small tags and cut ends, FN3 domain; E. coli lysate in the ELISA) LPAPKNLVVSRVTEDSACLSWTTAFHNEYFDSFLIQYQESEKVGEAIVLTVPGSERSYDLTGLKPGTEYTVSIYGVYSRPKAEFTSNPLSAIFTT
640 RSU	1440 RSU	9.79e+06 RSU	ISOP194BR9P1E4 (designed binder, not shown: small tags and cut ends, FN3 domain; E. coli lysate in the ELISA) LPAPKNLVVSRVTEDSARLSWTTAFHNEYFDSFLIQYQESEKVGEAIVLTVPGSERSYDLTGLKPGTEYTVSIYGVYQRGYHNWFSNPLSAIFTT
640 RSU	960 RSU	1.44e+07 RSU	ISOP194BR9P1G9 (designed binder, not shown: small tags and cut ends, FN3 domain; E. coli lysate in the ELISA) LPAPKNLVVSRVTEDSARLSWTTAFHNEYFDSFLIQYQESEKVGEAIVLTVPGSERSYDLTGLKPGTEYTVSIYGVYIRVQVLWFSNPLSAIFTT
